Experimental data from the nanobody polyreactivity screen of Harvey et al. (2022).

Assay: yeast display, Sf9 membrane polyspecificity reagent, FACS + sequencing; frameworks hold sequencing errors
Summary of the method: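 Using colony PCR, genes from sorted yeast display clones were amplified, then sequenced on MiSeq at 2 × 250 and filtered by CDR length. The clones had been stained with 10% biotinylated, detergent-solubilized Sf9 membrane reagent for 1 hour at 4 °C and sorted by FACS into low and high (top ~1%) gates on anti-HA and streptavidin fluorescence. Polyreactivity labels come from the gate of origin.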

| Sequence | polyreactivity (PSR sort gate) |
| --- | --- |
| QVQLVESGGGLVQAGGSLRLSCAASGSIFYAYAMGWYRQAPGKERELVAVISRGGITNYADSVKGRFTISRDNAKNTVYLQMNSMKPEDTAVYYCAAATSAWGYLRRYGYWGQGTQVTVSS | low polyreactivity |
| QVQLVESGGGLVQAGGSLRLSCAASGSIFYAYAMGWYRQAPGKESELVAVISRGGITNYADSVKGRFTISRDNAKNTVYLQMNSLKPEDTAVYYCAAATSAWGYLRRYGYWGQGTQVTVSS | low polyreactivity |
| QVQLVESGGGLVQAGGSLRLSCAASGSIFYDKAMGWYRQAPGKERELVAVISNSGRTYYADSVKGRFTISRDNAKNTVYLQMNSLKPEDTAVYYCWGQVTQVTVSS | low polyreactivity |
| QVQLVESGGGLVQAGGSLRLSCAASGSIFYDYMGWYRQAPGKERELVAVISYSGSSTYYADSVKGRFTISRDNAKNTVYLQMNSLKPEDTAVYYCAARNVNGWDYDYWGQGTQVTVSS | low polyreactivity |
| QVQLVESGGGLVQAGGSLRLSCAASGSIFYDYVMGWYRQAPGKERELVAAISVSGGRTYYADSVKGRFTISRDNAKNTVYLQMNSLKPEDTAVDYCAAKYPAGGRNYDYWGQGTQVTVSS | high polyreactivity |
| QVQLVESGGGLVQAGGSLRLSCAASGSIFYENTMGWYRQAPGKEREFVAAISRSGGSTYYADSEKGRFTISRDNAKNTVYLQMNSLKPEDTAVYYCAAKSRRYHHEYYYWGQGTQVTVSS | high polyreactivity |
| QVQLVESGGGLVQAGGSLRLSCAASGSIFYFNAMGWYRPAPGKERELVAAINISGSSTSYADSVKGRFTISRDNAKNTVYLQMNSLKPEDTAVYYCAAEDEPRILIVRVWDYYWGQGTQVTVSS | low polyreactivity |
| QVQLVESGGGLVQAGGSLRLSCAASGSIFYFNAMGWYRQAPGKERELVAAISTSGGSTYADSVKGRFTISRDNAKNTVYLQMNSLKPEDTAVYYCAADFLTSRSRTFDYWGQGTQVTVSS | low polyreactivity |
| QVQLVESGGGLVQAGGSLRLSCAASGSIFYFNAMGWYRQAPGKERELVAAITASGGRTYYADSVKGRFTISRDNAKNTVYLQMNSLKPEDTAVYYCNAYRPWSWWGEMDYWGQGTQVTVSS | high polyreactivity |
| QVQLVESGGGLVQAGGSLRLSCAASGSIFYFNAMGWYRQAPGKERELVADISWSGGESTYYADSVKGRFTISRDNAKNTVYLQMNSLKPEYTAVYYCAADYWSPYVYVYWGQGTQVTLSS | low polyreactivity |
| QVQLVESGGGLVQAGGSLRLSCAASGSIFYFNAMGWYRQAPGKERELVADITSGGSTYYADSVKGRFTISRDNAKNTVYLQMNSLKPEDTAVYYCNAALPVTRSERYGSDYWGQGTQVTVSS | low polyreactivity |
| QVQLVESGGGLVQAGGSLRLSCAASGSIFYGFDMGWYRQAPGKERELVATISWSSGSSTYYADTVKGRFTISRDNAKNTVYLQMNSLKPEETAVYYCAVDFAIGYRYQGRVDYWGQGTQVTVSS | low polyreactivity |
| QVQLVESGGGLVQAGGSLRLSCAASGSIFYGNAMGWYRQAPGNERESVAGITGSGSRTYYADSVKGRFTISRDNAKITVYLQMNSLKAEDTAVYYCARLTRTSRGLYDYWGQGTQVTVSS | high polyreactivity |
| QVQLVESGGGLVQAGGSLRLSCAASGSIFYGNTMGWYRQAPGKEREFVAAINKSDDSTYYADSVKGRFTISRDNAKNTVYLQMNSLKPEDTAVYYCAADYLGRFDYNYWGQGTQVTVSS | low polyreactivity |
| QVQLVESGGGLVQAGGSLRLSCAASGSIFYGNTMGWYRQAPGKERELVAGITRGGGSTYYADSVKGRFTISRDNAKNTVYLQMNSLKPEDTAVYYCAATFPYHDGDYWGQGTQVTVSS | low polyreactivity |
| QVQLVESGGGLVQAGGSLRLSCAASGSIFYGNVMGWYRQAPGKERELVAAISSSGGSTYYADSVKGRFTISRDTAKNTVYLQMNSLKPEDTAVYYCAAYWWSRVVRGSRYDYWGQGTQVTVSS | low polyreactivity |
| QVQLVESGGGLVQAGGSLRLSCAASGSIFYGYAMGWSRQAPGKERELVAVITDGGGSTYYADSVKGRFTISRDNAKNTVYLQMNSLKPEDTAVYYCAADSWGPYYYSSYSYDYWGQGTQVTVSS | low polyreactivity |
